Laboratory results published in patent US20260209386A1 (MYTHIC THERAPEUTICS, published 2026).
Changes are numbered by the printed parent chain.

T1: Human PTK7 (human, UniProt Q13308 31-1070)
T1 sequence: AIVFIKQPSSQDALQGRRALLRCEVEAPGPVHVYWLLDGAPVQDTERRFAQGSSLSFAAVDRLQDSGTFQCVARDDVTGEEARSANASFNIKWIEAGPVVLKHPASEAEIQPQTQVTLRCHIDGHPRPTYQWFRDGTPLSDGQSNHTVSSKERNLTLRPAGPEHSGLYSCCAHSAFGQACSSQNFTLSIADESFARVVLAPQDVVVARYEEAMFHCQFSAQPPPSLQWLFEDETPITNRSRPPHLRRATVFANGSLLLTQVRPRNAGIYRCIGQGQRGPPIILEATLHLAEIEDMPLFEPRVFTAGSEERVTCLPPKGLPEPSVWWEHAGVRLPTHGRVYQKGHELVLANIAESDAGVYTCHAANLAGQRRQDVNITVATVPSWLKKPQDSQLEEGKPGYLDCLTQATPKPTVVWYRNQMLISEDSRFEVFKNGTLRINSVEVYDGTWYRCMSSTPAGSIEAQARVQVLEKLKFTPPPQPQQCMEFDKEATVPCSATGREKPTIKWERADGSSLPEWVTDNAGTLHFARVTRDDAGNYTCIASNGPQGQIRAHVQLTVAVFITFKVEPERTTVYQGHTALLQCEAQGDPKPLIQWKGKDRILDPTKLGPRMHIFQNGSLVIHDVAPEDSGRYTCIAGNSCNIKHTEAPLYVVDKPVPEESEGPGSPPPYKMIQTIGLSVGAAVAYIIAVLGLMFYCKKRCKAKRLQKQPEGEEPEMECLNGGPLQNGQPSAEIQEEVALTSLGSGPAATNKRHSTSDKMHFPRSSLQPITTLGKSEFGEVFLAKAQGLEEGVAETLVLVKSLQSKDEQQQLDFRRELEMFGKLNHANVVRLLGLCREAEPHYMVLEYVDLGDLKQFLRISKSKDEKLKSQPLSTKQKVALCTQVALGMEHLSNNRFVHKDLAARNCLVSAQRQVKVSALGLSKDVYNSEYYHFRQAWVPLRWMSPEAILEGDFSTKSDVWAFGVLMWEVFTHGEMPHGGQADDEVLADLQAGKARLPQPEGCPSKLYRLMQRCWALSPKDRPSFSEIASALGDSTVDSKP

B1: MYT11257 (antibody, V domains shown)
VH: EVQLVESGGGLVQPGGSLRLSCTASGIDHSRYSMGWVRQAPGKGLEWVGIISYGGSTYYASWAKGRFTISRDTSKNTVYLQMNSLRAEDTAVYFCARVGYPGYSGYGYAFDAFDPWGQGTLVTVSS
VL: EIVMTQSPSTLSASVGDRVIITCQSSKSVYNDNWLSWYQQKPGKAPKLLIYGASTLASGVPSRFSGSGSGAEFTLTISSLQPDDFATYYCAGGYSSSSDNGFGQGTKLTVL
B2: MYT11281 (antibody, V domains shown)
VH: B1 VH with H29L, R97H
VL: B1 VL
B3: MYT11291 (antibody, V domains shown)
VH: B1 VH with H29L, G107H
VL: B1 VL
B4: MYT11261 (antibody, V domains shown)
VH: B1 VH with H29L, S33H
VL: B1 VL
B5: MYT11294 (antibody, V domains shown)
VH: B1 VH with H29L, F110H
VL: B1 VL
B6: MYT11264 (antibody, V domains shown)
VH: B1 VH with H29L, I50H
VL: B1 VL
B7: MYT11280 (antibody, V domains shown)
VH: B1 VH with H29L, A96H
VL: B1 VL
B8: MYT11293 (antibody, V domains shown)
VH: B1 VH with H29L, A109H
VL: B1 VL
B9: MYT11282 (antibody, V domains shown)
VH: B1 VH with H29L, V98H
VL: B1 VL
B10: MYT11259 (antibody, V domains shown)
VH: B1 VH with H29L, R31H
VL: B1 VL
B11: MYT11287 (antibody, V domains shown)
VH: B1 VH with H29L, Y103H
VL: B1 VL
B12: MYT11292 (antibody, V domains shown)
VH: B1 VH with H29L, Y108H
VL: B1 VL
B13: MYT11271 (antibody, V domains shown)
VH: B1 VH with H29L, T57H
VL: B1 VL
B14: MYT11284 (antibody, V domains shown)
VH: B1 VH with H29L, Y100H
VL: B1 VL
B15: MYT11053 (antibody, V domains shown)
VH: EVQLVESGGGLVQPGGSLRLSCTASGLSLSSYWMSWVRQAPGKGLEWVGVISAGGNTYYANWAKGRFTISRDTSKNTVYLQMNSLRAEDTAVYFCHRGDDGYTNAAYVSNLWGQGTLVTVSS
VL: EIVMTQSPSTLSASVGDRVIITCQASQSISSWLSWYQQKPGKAPKLLIYKASTLASGVPSRFSGSGSGAEFTLTISSLQPDDFATYYCQSYFDSTTIAFGQGTKLTVL
B16: MYT11068 (antibody, V domains shown)
VH: B15 VH with H96A, L111H
VL: B15 VL
B17: MYT11056 (antibody, V domains shown)
VH: B15 VH with H96A, D99H
VL: B15 VL
B18: MYT11081 (antibody, V domains shown)
VH: B15 VH with H96A
VL: B15 VL with L33H
B19: MYT11096 (antibody, V domains shown)
VH: B15 VH with H96A
VL: B15 VL with T95H
B20: MYT11058 (antibody, V domains shown)
VH: B15 VH with H96A, G101H
VL: B15 VL
B21: MYT11084 (antibody, V domains shown)
VH: B15 VH with H96A
VL: B15 VL with A51H
B22: MYT11059 (antibody, V domains shown)
VH: B15 VH with H96A, Y102H
VL: B15 VL
B23: MYT11069 (antibody, V domains shown)
VH: B15 VH with F94Y, H96A
VL: B15 VL
B24: MYT11078 (antibody, V domains shown)
VH: B15 VH with H96A
VL: B15 VL with S30H
B25: MYT11063 (antibody, V domains shown)
VH: B15 VH with H96A, A106H
VL: B15 VL
B26: MYT11079 (antibody, V domains shown)
VH: B15 VH with H96A
VL: B15 VL with S31H
B27: MYT11100 (antibody, V domains shown)
VH: B15 VH with H96A
VL: B15 VL with T106E, V107I, L108K
B28: MYT11190 (antibody, V domains shown)
VH: EVQLVESGGGLVQPGGSLRLSCTASGIDLSSYVMGWVRQAPGKGLEWVGHIYGGGGTYYATWARGRFTISRDTSKNTVYLQMNSLRAEDTAVYFCARAAADFYFNLWGQGTLVTVSS
VL: EIVMTQSPSTLSASVGDRVIITCQASQSISSYLAWYQQKPGKAPKLLIYDISDLASGVPSRFSGSGSGAEFTLTISSLQPDDFATYYCQSYYWISNSGAAFGQGTKLTVL
B29: MYT11212 (antibody, V domains shown)
VH: B28 VH with H50Y, F102H
VL: B28 VL
B30: MYT11211 (antibody, V domains shown)
VH: B28 VH with H50Y, D101H
VL: B28 VL
B31: MYT11232 (antibody, V domains shown)
VH: B28 VH with H50Y
VL: B28 VL with I51H
B32: MYT11142 (antibody, V domains shown)
VH: EVQLVESGGGLVQPGGSLRLSCTASGFSLSTYAMSWVRQAPGKGLEWVGMIYINDNTYYASWAKGRFTISRDTSKNTVYLQMNSLRAEDTAVYYCARDIGISYYIGVSLWGQGTLVTVSS
VL: EIVMTQSPSTLSASVGDRVIITCQASQSIGTRLSWYQQKPGKAPKLLIYGASKLATGVPSRFSGSGSGAEFTLTISSLQPDDFATYYCLGEYSYTTTDGIAFGQGTKLTVL
B33: MYT11143 (antibody, V domains shown)
VH: B32 VH with D55A, Y94F
VL: B32 VL

What follows are binders tested against T1, Human PTK7 (assay: cell-based or functional assay).

Internalization, FOW @ 25 nM (fold over the wildtype, parental antibody)	Binder
1.11 fold over parental antibody	B1
1.11 fold over parental antibody	B2
1.53 fold over parental antibody	B3
1.24 fold over parental antibody	B4
1.66 fold over parental antibody	B5
1.13 fold over parental antibody	B6
1.16 fold over parental antibody	B7
1.65 fold over parental antibody	B8
1.68 fold over parental antibody	B9
1.14 fold over parental antibody	B10
1.71 fold over parental antibody	B11
1.59 fold over parental antibody	B12
1.57 fold over parental antibody	B13
1.51 fold over parental antibody	B14
1.25 fold over parental antibody	B15
1.22 fold over parental antibody	B16
1.1 fold over parental antibody	B17

Internalization, FOW @ 25 nM (fold over the wildtype, parental antibody)	Binder
1.22 fold over parental antibody	B18
1.43 fold over parental antibody	B19
1.26 fold over parental antibody	B20
1.14 fold over parental antibody	B21
1.27 fold over parental antibody	B22
1.22 fold over parental antibody	B23
1.24 fold over parental antibody	B24
2.04 fold over parental antibody	B25
1.2 fold over parental antibody	B26
1.17 fold over parental antibody	B27
1.32 fold over parental antibody	B28
1.23 fold over parental antibody	B29
1.14 fold over parental antibody	B30
1.15 fold over parental antibody	B31
1.29 fold over parental antibody	B32
1.61 fold over parental antibody	B33
